These results are taken from PMC6563020, “Protein Redox State Monitoring Studies of Thiol Reactivity” (Antioxidants, 2019).

Series [1] deals with the molecule itself. As to the kind of experiment: non-reducing SDS-PAGE with Coomassie staining; purified recombinant CNBD, untreated or treated with H2O2 (1 mM) for 15 min; SDS-PAGE, Coomassie Blue; no Protein-SHifter.
In series [2] the target is T1, Human peroxiredoxin 6 (Prx6) (human (endogenous in human pulmonary artery smooth muscle cells)), P30041.
T1 chain: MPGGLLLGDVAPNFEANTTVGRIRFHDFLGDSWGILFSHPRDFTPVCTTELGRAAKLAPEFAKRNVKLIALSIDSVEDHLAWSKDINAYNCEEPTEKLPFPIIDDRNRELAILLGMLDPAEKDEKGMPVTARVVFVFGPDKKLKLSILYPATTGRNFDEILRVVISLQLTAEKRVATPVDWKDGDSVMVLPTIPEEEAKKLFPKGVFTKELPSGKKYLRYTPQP
The experiment in a line: non-reducing SDS-PAGE and immunoblot; untreated (or PDGF-treated) human pulmonary artery smooth muscle cells; TCA-precipitated lysates labelled with Protein-SHifter Plus, SDS-PAGE without BME, immunoblot with Prx6 antibody. Particulars: remark: other sources report otherwise.

Series [3] has as its target T1, Human peroxiredoxin 6 (Prx6) (human …). The experiment in a line: SDS-PAGE and immunoblot; lysate proteins from untreated human pulmonary artery smooth muscle cells denatured with SDS and incubated with H2O2 (or BME) in a test tube for 15 min; Protein-SHifter Plus added, SDS-PAGE, immunoblot with Prx6 antibody. Particulars: remark: other sources report otherwise.
Series [4] shares this target. The experiment in a line: non-reducing SDS-PAGE and immunoblot; human pulmonary artery smooth muscle cells, with or without deferoxamine (50 uM, 30 min) and H2O2 (15 min); lysates on SDS-PAGE with or without 5% BME, immunoblot with Prx6 antibody; no Protein-SHifter. As to conditions: remark: other sources report otherwise. In general terms: A western blot detects proteins with antibodies after separation by electrophoresis.

Series [5] concerns the molecule itself. As to the kind of experiment: SDS-PAGE and immunoblot; untreated rat pulmonary artery smooth muscle cells; lysates on SDS-PAGE, immunoblot with Prx6 antibody; no Protein-SHifter.

“And” between values parts separate entries of the source, which are not always exact repeats. Equal values may be shown once.

B1: Cyclic nucleotide-binding domain (CNBD) of human HCN4 (hHCN4) (domain or fragment, UniProt Q9Y3Q4 571-708, looked up)
chain: GELSEPLREEIINFNCRKLVASMPLFANADPNFVTSMLTKLRFEVFQPGDYIIREGTIGKKMYFIQHGVVSVLTKGNKETKLADGSYFGEICLLTRGRRTASVRADTYCRLYSLSVDNFNEVLEEYPMMRRAFETVAL
notes: two cysteines; 19 kDa; Subcloned into pETM11; the printed mass of 19 kDa is more than that of residues 571-708 alone, which may mean that the tag was kept; also called hHCN4 CNBD; CNBD domain of hHCN4 channels; source: E. coli BL21 (DE3), purified (Ni2+-NTA, size-exclusion chromatography)
Usually stoichiometry N stands for a count of units in the complex or per binding partner. Consider B1, for which the “stoichiometry N” value in series [1] was 2 and 3.

B2: Human peroxiredoxin 6 (Prx6), P30041 1-224 (enzyme)
chain: T1 chain
As for B2, the stoichiometry N is 2 and 3 in series [2]; 2 in series [3]; 2 in series [4].

B3: Rat peroxiredoxin 6 (Prx6) (enzyme, UniProt O35244 1-224, looked up)
chain: MPGGLLLGDEAPNFEANTTIGHIRFHDFLGDSWGILFSHPRDFTPVCTTELGRAAKLAPEFAKRNVKLIALSIDSVEDHFAWSKDINAYNGAAPTEKLPFPIIDDKDRDLAILLGMLDPAEKDEKGMPVTARVVFIFGPDKKLKLSILYPATTGRNFDEILRVVDSLQLTASNPVATPVDWKKGESVMVLPTLPEEEAKQLFPKGVFTKELPSGKKYLRYTPQP
notes: Peroxiredoxin 6, rat, one cysteine only (catalytic Cys47); also called rat Prx6; source: endogenous, rat pulmonary artery smooth muscle cells (Cell Applications), in lysate
As to B3, the “stoichiometry N” value in series [5] worked out at 2.
